Experiment [1] addresses T1, recombinant SARS-CoV-2 RBD with C-terminal AviTag (SARS-CoV-2, UniProt P0DTC2 319-541). In words: BLI, biotinylated RBD on streptavidin biosensors; OR: over-range [Cont. 7].
For experiment [2], the target named is SARS-COV-2 Wuhan Reference RBD (SARS-CoV-2, UniProt P0DTC2 319-541).
Experiment [3] addresses T1, recombinant SARS-CoV-2 RBD with …. In words: BLI, biotinylated RBD on streptavidin biosensors; OR: over-range. (In general: Biolayer interferometry detects binding as a change in optical thickness at a sensor tip.)
Experiment [4] shares this target.

The Kd is a measure of binding affinity in units of concentration. Broadly, the EC50 is the concentration needed to bring the measured effect to its halfway point. Low values mean higher potency in that assay, high ones lower potency in that assay.

Where two headings read alike, the source gives them in different places.

B1: PP888 MBP-S1b-E11-H6 (VHH)
VHH: QVQLVESGGGLVQPGGSLRLSCAASGSYASIASMHWFRQAPGKEREFVAGVTSGGSTNYGDSVKGRFTISRDNAKNTVYLQMNSLKPEDTAVYYCNALAGANYESQWEEYNYWGQGTQVTVSS
notes: Form: Monomer
Turning to B1, the Kd in experiment [1] was approximately 5.29 µM.

B2: PP788 (VHH, not shown: large carriers; small tags and cut ends)
VHH: QVQLVESGGGLVQPGGSLRLSCAASGSIESINAIHWFRQAPGKAREEVAAITENDVDYYADSVKGRFTISRDNAKNTVYLQMNSLKPEDTAVYYCASLSSGYQYVGFRYWGQGTQVTVSS
Take B2: the EC50 in experiment [2] stood at 1.56 nM.

B3: PP806 MBP-R2B-E6-H6 (VHH)
VHH: QVQLVESGGGLVQPGGSLRLSCAASGGVTRGNAMAWYRQAPGKQREIVAAIDNGGSHAYGDSVKGRFTISRDNAKNTVYLQMNSLKPEDTAVYYCAVFPDHDSEQASIDRVYWGQGTQVTVSS
notes: Form: Monomer
Regarding B3, the Kd in experiment [3] is approximately 1400 nM.

B4: MBP-5HVZ-R5d-E1-H6 (VHH, not shown: large carriers; small tags and cut ends)
VHH: QVQLVESGGGLVQPGGSLRLSCAASGSSFSINWMHWFRQAPGKQREGVASINSTGSDYYADSVKGRFTISRDNAKNTVYLQMNSLKPEDTAVYYCAAAITQPMPQGKGAPPGFYYWGQGTQVTVSS
For the molecule B4, in experiment [4], the Kd was 7.98 nM.

Values taken from US20240150440A1 (LUMEN BIOSCIENCE, published 2024).
